Assay results reported in US10488411B2, “Inflammasome activation in myelodysplastic syndromes” (H. LEE MOFFITT CANCER CENTER AND RESEARCH INSTITUTE, INC., priority 2015, dated 2019).

Experiments:
[1] = test system: pyroptosis-related gene expression; test: qPCR of pyroptosis-related gene expression in lower-risk MDS BM-MNC; format: cell-based, human; settings: lower-risk MDS BM-MNC (n=5), 24 hours, versus autologous BM plasma alone
Method: Real-time quantitative PCR. RNA was isolated from BM-MNC using the RNeasy Mini Kit (Qiagen). cDNA was produced using the iScript cDNA Synthesis Kit (Bio-Rad). Sequences for primers can be found in Table 1. GAPDH mRNA was used for transcript normalization. cDNA was amplified using the iQ SYBR Green Supermix and the CFX96 Real-Time PCR Detection System (Bio-Rad). PCR conditions were as follows: 10 minutes at 95° C., followed by 40 cycles of amplification (15 seconds at 95° C. and 1 minute at 60° C.). Relative gene expression was calculated using the −2^ΔΔCt method.

MDS BM-MNC = test: Pyroptosis flow cytometry panel (a-caspase-1+/annexin-V+) in MDS BM-MNC incubated with autologous BM plasma; format: cell-based, human
Method: Pyroptosis flow cytometry panel. For human samples, treated and untreated BM-MNC were incubated overnight in IMDM, supplemented with 10% autologous BM plasma. Subsequently, cells were harvested, washed twice in 1×PBS, and stained with LIVE/DEAD Violet fluorescent reactive dye according to the manufacturer's protocol (Life Technologies). Cells were resuspended in 1×PBS with 2% BSA, and incubated at room temperature for 15 minutes to block non-specific binding. After washing, cells were stained with 30× FAM-FLICA® Caspase-1 and Caspase-3/7 solution at a ratio of 1:30 for 2 hours at 37° C. Cells were washed and stained for cell surface receptors using CD38:PE-CF594, CD33:BV711, CD34:APC (BD Biosciences), and CD71:PE-Cyanine7 (eBioscience). All antibodies were diluted 1:20, and cells were stained for 30 minutes at 4° C. Cells were washed, resuspended in 1× binding buffer, and stained with Annexin-V:Cy5.5 at a dilution of 1:20 for 15 minutes at room temperature (BD Biosciences). 1× binding buffer was added to a final volume of 400 μL. Sample acquisitions were carried out using a BD LSR II flow cytometer and FACSDiva software (BD Biosciences). Calibration of the flow cytometer was carried out prior to each experiment using Rainbow Mid-Range Fluorescent Particles (BD Biosciences). To establish fluorescence compensation settings, ArC Amine Reactive Compensation Beads were used for LIVE/DEAD Violet staining (Life Technologies), and BD CompBead Plus Anti-Mouse Ig κ/Negative Control (BSA) Compensation Plus Particles were used for surface receptor conjugates (BD Biosciences). Data were analyzed using FlowJo 9.7.5 software (FlowJo, LLC, Ashland, Oreg.).

B1: CD33-IgG1: S100A9 high-affinity chimeric (CD33-IgG1) decoy receptor (protein)
chain: DPNFWLQVQESVTVQEGLCVLVPCTFFHPIPYYDKNSPVHGYWFREGAIISRDSPVATNKLDQEVQEETQGRFRLLGDPSRNNCSLSIVDARRRDNGSYFFRMERGSTKYSYKSPQLSVHVTDLTHRPKILIPGTLEPGHSKNLTCSVSWACEQGTPPIFSWLSAAPTSLGPRTTHSSVLIITPRPQDHGTNLTCQVKFAGAGVTTERTIQLNVTYVPQNPTTGIFPGDGSGKQETRAGVVH
modifications: left off: a dimerising Fc or GST
CASP3 expression [1]: markedly reduced
expression of CASP1 [1]: reduced
expression of IL-1β [1]: reduced
expression of IL-18 [1]: reduced
expression of NLRP3 [1]: reduced
reduction of fraction of pyroptotic cells, maximum lineage-specific change, CD33+ cells (MDS BM-MNC; CD33+ immature myeloids, 0.5 μg CD33-IgG1 or 0.1 μM IRAK4 inhibitor, 24 hours, autologous BM plasma): 68%
reduction of fraction of pyroptotic cells, maximum lineage-specific change, CD71+ cells (MDS BM-MNC; CD71+ erythroids, 0.5 μg CD33-IgG1 or 0.1 μM IRAK4 inhibitor, 24 hours, autologous BM plasma): 64%
fraction of pyroptotic cells across all lineages studied (MDS BM-MNC; MDS BM-MNC (n=4) with autologous BM plasma, 0.5 μg CD33-IgG1 or 0.1 μM IRAK4 inhibitor, 24 hours): marked reduction
reduction of fraction of pyroptotic cells, maximum lineage-specific change, progenitor cells (MDS BM-MNC; progenitor cells (CD34+CD38+), 0.5 μg CD33-IgG1 or 0.1 μM IRAK4 inhibitor, 24 hours, autologous BM plasma): 23%
MDSC fraction (MDS BM-MNC; short-term treatment of MDS BM-MNC): significantly reduced
reduction of fraction of pyroptotic cells, maximum lineage-specific change, stem cells (MDS BM-MNC; stem cells (CD34+CD38-), 0.5 μg CD33-IgG1 or 0.1 μM IRAK4 inhibitor, 24 hours, autologous BM plasma): 44%
